For the test, the target named is yeast-displayed mouse LIF (mLIF, Ser24 to Phe203) (mouse, UniProt P09056 24-203). The test is described as follows: flow cytometry on cells; LIF displayed on yeast (EBY100), soluble Fc fusion titrated in PBS with 1 mg/ml BSA, Fc detected with fluorescent secondary antibody; apparent Kd by non-linear regression. The conditions noted are these: one partner purified. Background: Flow cytometry measures light scatter and fluorescence of single cells or particles in a stream.

B1: mLIFR-Fc (mouse LIFR CBM I–Ig-like–CBM II fused to an antibody Fc domain) (Fc fusion)
chain: LKRGVQDLKCTTNNMRVWDCTWPAPLGVSPGTVKDICIKDRFHSCHPLETTNVKIPALSPGDHEVTINYLNGFQSKFTLNEKDVSLIPETPEILDLSADFFTSSLLLKWNDRGSALPHPSNATWEIKVLQNPRTEPVALVLLNTMLSGKDTVQHWNWTSDLPLQCATHSVSIRWHIDSPHFSGYKEWSDWSPLKNISWIRNTETNVFPQDKVVLAGSNMTICCMSPTKVLSGQIGNTLRPLIHLYGQTVAIHILNIPVSENSGTNIIFITDDDVYGTVVFAGYPPDVPQKLSCETHDLKEIICSWNPGRITGLVGPRNTEYTLFESISGKSAVFHRIEGLTNETYRLGVQMHPGQEIHNFTLTGRNPLGQAQSAVVINVTERVAPHDPTSLKVKDINSTVVTFSWYLPGNFTKINLLCQIEICKANSKKEVRNATIRGAEDSTYHVAVDKLNPYTAYTFRVRCSSKTFWKWSRWSDEKRHLTTEAT
notes: signal peptide in the construct; mouse LIF receptor (mLIFR), three most N-terminal extracellular domains CBM I–Ig-like–CBM II, Met1 to Thr529; also called soluble mLIFR-Fc; mLIFR mIgG2a Fc; source: Expi293F, transfected (pAdd2), purified from medium (Protein-A Sepharose)
For B1, the Kd was found to be 0.16 ± 0.02 nM.

Source of the values: paper PMC8041770, “An engineered ligand trap inhibits leukemia inhibitory factor as pancreatic cancer treatment strategy” (Communications Biology, 2021).
